Blank lines part the entries; values can stand above or below the binder they belong to.
Legend:
[1] = biological target: mannose-6-phosphate (M6P) receptor; test: M6P receptor affinity column (Affi-Gel 15): 6 ug GALNS loaded, eluted with a mannose-6-phosphate gradient, quantified by GALNS ELISA
[2] = biological target: mannose-6-phosphate (M6P) receptor; test: M6P receptor plate binding assay: plates coated with 4 ug/mL M6P receptor, GALNS 0.16-10 nM, bound enzyme read by 4MU-Gal-6S activity, single-site fit
[3] = biological target: mannose-6-phosphate (M6P) receptor; test: M6P receptor plate binding assay (receptor-coated plate, bound enzyme read by activity)

M6P Receptor Column Binding: % Bound [1]: 56%
Kd [2]: 2.4 nM
B1: recombinant human N-acetylgalactosamine-6-sulfatase (GALNS) produced from G71S clone 4 (enzyme)
chain: APQPPNILLLLMDDMGWGDLGVYGEPSRETPNLDRMAAEGLLFPNFYSANPLCSPSRAALLTGRLPIRNGFYTTNAHARNAYTPQEIVGGIPDSEQLLPELLKKAGYVSKIVGKWHLGHRPQFHPLKHGFDEWFGSPNCHFGPYDNKARPNIPVYRDWEMVGRYYEEFPINLKTGEANLTQIYLQEALDFIKRQARHHPFFLYWAVDATHAPVYASKPFLGTSQRGRYGDAVREIDDSIGKILELLQDLHVADNTFVFFTSDNGAALISAPEQGGSNGPFLCGKQTTFEGGMREPALAWWPGHVTAGQVSHQLGSIMDLFTTSLALAGLTPPSDRAIDGLNLLPTLLQGRLMDRPIFYYRGDTLMAATLGQHKAHFWTWTNSWENFRQGIDFCPGQNVSGVTTHNLEDHTKLPLIFHLGRDPGERFPLSFASAEYQEALSRITSVVQQHQEALVPAQPQLNVCNWAVMNWAPPGCEKLGKCLTPPESIPKKCLWSH
modifications: Cys at position 53 of the precursor (position 79 of SEQ ID NO:4) converted to Calpha-formylglycine (FGly), about 90%; N-linked glycans at Asn178 (bis-phosphorylated mannose 7, BPM7) and Asn397 (oligomannose-type), numbered on the secreted polypeptide

Kd [3]: 5.7 nM
B2: recombinant human N-acetylgalactosamine-6-sulfatase (GALNS) produced from G71S clone C2 (enzyme)
chain: B1 chain
modifications: active site Cys at position 53 of the precursor (position 79 of SEQ ID NO:4) converted to Calpha-formylglycine (percent not printed for this clone); N-linked glycans at Asn178 and Asn397, bis-phosphorylated oligomannose 0.69 mol/mol

— patent publication US20100068195A1
